Assay results taken from US20090099029A1, “Methods and substrates for conducting assays” (Invitrogen Corporation, priority 2005, published 2009).

B1: PLK3 (protein)
chain: SGRTYLKGRLLGKGGFARCYEATDTETGSAYAVKVIPQSRVAKPHQREKILNEIELHRDLQHRHIVRFSHHFEDADNIYIFLELCSRKSLAHIWKARHTLLEPEVRYYLRQILSGLKYLHQRGILHRDLKLGNFFITENMELKVGDFGLAARLEPPEQRKKTICGTPNYVAPEVLLRQGHGPEADVWSLGCVMYTLLCGSPPFETADLKETYRCIKQVHYTLPASLSLPARQLLAAILRASPRDRPSIDQILRHDFFTKGYTPDRLPISSCVTVPDLTPPNPA
modifications: left off: a dimerising Fc or GST
B2: PAK3 (protein)
chain: MSDGLDNEEKPPAPPLRMNSNNRDSSALNHSSKPLPMAPEEKNKKARLRSIFPGGGDKTNKKKEKERPEISLPSDFEHTIHVGFDAVTGEFTGIPEQWARLLQTSNITKLEQKKNPQAVLDVLKFYDSKETVNNQKYMSFTSGDKSAHGYIAAHPSSTKTASEPPLAPPVSEEEDEEEEEEEDENEPPPVIAPRPEHTKSIYTRSVVESIASPAVPNKEVTPPSAENANSSTLYRNTDRQRKKSKMTDEEILEKLRSIVSVGDPKKKYTRFEKIGQGASGTVYTALDIATGQEVAIKQMNLQQQPKKELIINEILVMRENKNPNIVNYLDSYLVGDELWVVMEYLAGGSLTDVVTETCMDEGQIAAVCRECLQALDFLHSNQVIHRDIKSDNILLGMDGSVKLTDFGFCAQITPEQSKRSTMVGTPYWMAPEVVTRKAYGPKVDIWSLGIMAIEMVEGEPPYLNENPLRALYLIATNGTPELQNPERLSAVFRDFLNRCLEMDVDRRGSAKELLQHPFLKLAKPLSSLTPLIIAAKEAIKNSSR
modifications: left off: small tags and cut ends
B3: PAK6 (protein)
chain: MFRKKKKKRPEISAPQNFQHRVHTSFDPKEGKFVGLPPQWQNILDTLRRPKPVVDPSRITRVQLQPMKTVVRGSAMPVDGYISGLLNDIQKLSVISSNTLRGRSPTSRRRAQSLGLLGDEHWATDPDMYLQSPQSERTDPHGLYLSCNGGTPAGHKQMPWPEPQSPRVLPNGLAAKAQSLGPAEFQGASQRCLQLGACLQSSPPGASPPTGTNRHGMKAAKHGSEEARPQSCLVGSATGRPGGEGSPSPKTRESSLKRRLFRSMFLSTAATAPPSSSKPGPPPQSKPNSSFRPPQKDNPPSLVAKAQSLPSDQPVGTFSPLTTSDTSSPQKSLRTAPATGQLPGRSSPAGSPRTWHAQISTSNLYLPQDPTVAKGALAGEDTGVVTHEQFKAALRMVVDQGDPRLLLDSYVKIGEGSTGIVCLAREKHSGRQVAVKMMDLRKQQRRELLFNEVVIMRDYQHFNVVEMYKSYLVGEELWVLMEFLQGGALTDIVSQVRLNEEQIATVCEAVLQALAYLHAQGVIHRDIKSDSILLTLDGRVKLSDFGFCAQISKDVPKRKSLVGTPYWMAPEVISRSLYATEVDIWSLGIMVIEMVDGEPPYFSDSPVQAMKRLRDSPPPKLKNSHKVSPVLRDFLERMLVRDPQERATAQELLDHPFLLQTGLPECLVPLIQLYRKQTSTC
modifications: left off: small tags and cut ends
B4: EPHB2 (protein)
chain: CNRRGFERADSEYTDKLQHYTSGHMTPGMKIYIDPFTYEDPNEAVREFAKEIDISCVKIEQVIGAGEFGEVCSGHLKLPGKREIFVAIKTLKSGYTEKQRRDFLSEASIMGQFDHPNVIHLEGVVTKSTPVMIITEFMENGSLDSFLRQNDGQFTVIQLVGMLRGIAAGMKYLADMNYVHRDLAARNILVNSNLVCKVSDFGLSRFLEDDTSDPTYTSALGGKIPIRWTAPEAIQYRKFTSASDVWSYGIVMWEVMSYGERPYWDMTNQDVINAIEQDYRLPPPMDCPSALHQLMLDCWQKDRNHRPKFGQIVNTLDKMIRNPNSLKAMAPLSSGINLPLLDRTIPDYTSFNTVDEWLEAIKMGQYKESFANAGFTSFDVVSQMMMEDILRVGVTLAGHQKKILNSIQVMRAQMNQIQSVEV
modifications: left off: a dimerising Fc or GST
B5: PRKCZ (protein)
chain: MPSRTGPKMEGSGGRVRLKAHYGGDIFITSVDAATTFEELCEEVRDMCRLHQQHPLTLKWVDSEGDPCTVSSQMELEEAFRLARQCRDEGLIIHVFPSTPEQPGLPCPGEDKSIYRRGARRWRKLYRANGHLFQAKRFNRRAYCGQCSERIWGLARQGYRCINCKLLVHKRCHGLVPLTCRKHMDSVMPSQEPPVDDKNEDADLPSEETDGIAYISSSRKHDSIKDDSEDLKPVIDGMDGIKISQGLGLQDFDLIRVIGRGSYAKVLLVRLKKNDQIYAMKVVKKELVHDDEDIDWVQTEKHVFEQASSNPFLVGLHSCFQTTSRLFLVIEYVNGGDLMFHMQRQRKLPEEHARFYAAEICIALNFLHERGIIYRDLKLDNVLLDADGHIKLTDYGMCKEGLGPGDTTSTFCGTPNYIAPEILRGEEYGFSVDWWALGVLMFEMMAGRSPFDIITDNPDMNTEDYLFQVILEKPIRIPRFLSVKASHVLKGFLNKDPKERLGCRPQTGFSDIKSHAFFRSIDWDLLEKKQALPPFQPQITDDYGLDNFDTQFTSEPVQLTPDDEDAIKRIDQSEFEGFEYINPLLLSTEESV
B6: PRKD1(PKD) (protein)
chain: MSAPPVLRPPSPLLPVAAAAAAAAAALVPGSGPGPAPFLAPVAAPVGGISFHLQIGLSREPVLLLQDSSGDYSLAHVREMACSIVDQKFPECGFYGMYDKILLFRHDPTSENILQLVKAASDIQEGDLIEVVLSASATFEDFQIRPHALFVHSYRAPAFCDHCGEMLWGLVRQGLKCEGCGLNYHKRCAFKIPNNCSGVRRRRLSNVSLTGVSTIRTSSAELSTSAPDEPLLQKSPSESFIGREKRSNSQSYIGRPIHLDKILMSKVKVPHTFVIHSYTRPTVCQYCKKLLKGLFRQGLQCKDCRFNCHKRCAPKVPNNCLGEVTINGDLLSPGAESDVVMEEGSDDNDSERNSGLMDDMEEAMVQDAEMAMAECQNDSGEMQDPDPDHEDANRTISPSTSNNIPLMRVVQSVKHTKRKSSTVMKEGWMVHYTSKDTLRKRHYWRLDSKCITLFQNDTGSRYYKEIPLSEILSLEPVKTSALIPNGANPHCFEITTANVVYYVGENVVNPSSPSPNNSVLTSGVGADVARMWEIAIQHALMPVIPKGSSVGTGTNLHRDISVSISVSNCQIQENVDISTVYQIFPDEVLGSGQFGIVYGGKHRKTGRDVAIKIIDKLRFPTKQESQLRNEVAILQNLHHPGVVNLECMFETPERVFVVMEKLHGDMLEMILSSEKGRLPEHITKFLITQILVALRHLHFKNIVHCDLKPENVLLASADPFPQVKLCDFGFARIIGEKSFRRSVVGTPAYLAPEVLRNKGYNRSLDMWSVGVIIYVSLSGTFPFNEDEDIHDQIQNAAFMYPPNPWKEISHEAIDLINNLLQVKMRKRYSVDKTLSHPWLQDYQTWLDLRELECKIGERYITHESDDLRWEKYAGEQGLQYPTHLINPSASHSDTPETEETEMKALGERVSIL
modifications: left off: a dimerising Fc or GST
B7: PRKCE (protein)
chain: MVVFNGLLKIKICEAVSLKPTAWSLRHAVGPRPQTFLLDPYIALNVDDSRIGQTATKQKTNSPAWHDEFVTDVCNGRKIELAVFHDAPIGYDDFVANCTIQFEELLQNGSRHFEDWIDLEPEGRVYVIIDLSGSSGEAPKDNEERVFRERMRPRKRQGAVRRRVHQVNGHKFMATYLRQPTYCSHCRDFIWGVIGKQGYQCQVCTCVVHKRCHELIITKCAGLKKQETPDQVGSQRFSVNMPHKFGIHNYKVPTFCDHCGSLLWGLLRQGLQCKVCKMNVHRRCETNVAPNCGVDARGIAKVLADLGVTPDKITNSGQRRKKLIAGAESPQPASGSSPSEEDRSKSAPTSPCDQEIKELENNIRKALSFDNRGEEHRAASSPDGQLMSPGENGEVRQGQAKRLGLDEFNFIKVLGKGSFGKVMLAELKGKDEVYAVKVLKKDVILQDDDVDCTMTEKRILALARKHPYLTQLYCCFQTKDRLFFVMEYVNGGDLMFQIQRSRKFDEPRSRFYAAEVTSALMFLHQHGVIYRDLKLDNILLDAEGHCKLADFGMCKEGILNGVTTTTFCGTPDYIAPEILQELEYGPSVDWWALGVLMYEMMAGQPPFEADNEDDLFESILHDDVLYPVWLSKEAVSILKAFMTKNPHKRLGCVASQNGEDAIKQHPFFKEIDWVLLEQKKIKPPFKPRIKTKRDVNNFDQDFTREEPVLTLVDEAIVKQINQEEFKGFSYFGEDLMP
B8: PHKG2 (protein)
chain: MTLDVGPEDELPDWAAAKEFYQKYDPKDVIGRGVSSVVRRCVHRATGHEFAVKIMEVTAERLSPEQLEEVREATRRETHILRQVAGHPHIITLIDSYESSSFMFLVFDLMRKGELFDYLTEKVALSEKETRSIMRSLLEAVSFLHANNIVHRDLKPENILLDDNMQIRLSDFGFSCHLEPGEKLRELCGTPGYLAPEILKCSMDETHPGYGKEVDLWACGVILFTLLAGSPPFWHRRQILMLRMIMEGQYQFSSPEWDDRSSTVKDLISRLLQVDPEARLTAEQALQHPFFERCEGSQPWNLTPRQRFRVAVWTVLAAGRVALSTHRVRPLTKNALLRDPYALRSVRHLIDNCAFRLYGHWVKKGEQQNRAALFQHRPPGPFPIMGPEEEGDSAAITEDEAVLVLG
modifications: left off: small tags and cut ends
B9: EPHB1 (protein)
chain: SRKRAYSKEAVYSDKLQHYSTGRGSPGMKIYIDPFTYEDPNEAVREFAKEIDVSFVKIEEVIGAGEFGEVYKGRLKLPGKREIYVAIKTLKAGYSEKQRRDFLSEASIMGQFDHPNIIRLEGVVTKSRPVMIITEFMENGALDSFLRQNDGQFTVIQLVGMLRGIAAGMKYLAEMNYVHRDLAARNILVNSNLVCKVSDFGLSRYLQDDTSDPTYTSSLGGKIPVRWTAPEAIAYRKFTSASDVWSYGIVMWEVMSFGERPYWDMSNQDVINAIEQDYRLPPPMDCPAALHQLMLDCWQKDRNSRPRFAEIVNTLDKMIRNPASLKTVATITAVPSQPLLDRSIPDFTAFTTVDDWLSAIKMVQYRDSFLTAGFTSLQLVTQMTSEDLLRIGITLAGHQKKILNSIHSMRVQISQSPTAMA
modifications: left off: a dimerising Fc or GST
B10: EPHA8 (protein)
chain: KKRHCGYSKAFQDSDEEKMHYQNGQAPPPVFLPLHHPPGKLPEPQFYAEPHTYEEPGRAGRSFTREIEASRIHIEKIIGSGDSGEVCYGRLRVPGQRDVPVAIKALKAGYTERQRRDFLSEASIMGQFDHPNIIRLEGVVTRGRLAMIVTEYMENGSLDTFLRTHDGQFTIMQLVGMLRGVGAGMRYLSDLGYVHRDLAARNVLVDSNLVCKVSDFGLSRVLEDDPDAAYTTTGGKIPIRWTAPEAIAFRTFSSASDVWSFGVVMWEVLAYGERPYWNMTNRDVISSVEEGYRLPAPMGCPHALHQLMLDCWHKDRAQRPRFSQIVSVLDALIRSPESLRATATVSRCPPPAFVRSCFDLRGGSGGGGGLTVGDWLDSIRMGRYRDHFAAGGYSSLGMVLRMNAQDVRALGITLMGHQKKILGSIQTMRAQLTSTQGPRRHL
modifications: left off: a dimerising Fc or GST

What follows are molecules tested on kinases of Table 6 on Myelin Basic Protein (MBP) (assay: Kinase assay using MBP substrate, ProQ Diamond stain (Table 6)). Details: kinase printed on MBP-coated slide; 20 uM ATP, 30° C.; ProQ Diamond Microarray Stain; graded Strong/Weak/Negative.
Assay type: biochemical
How it was run: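 Reactions ran at 30° C. with 20 uM ATP, 4 mM MgCl2 and 5% DMSO in HEPES pH 7.5, inhibitor added or omitted. Kinases had been arrayed onto slide-bound dephosphorylated bovine MBP; phospho-signal read after ProQ Diamond staining.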

MBP Kinase Activity, Weak:
B2
B6
B10

MBP Kinase Activity, Strong:
B4
B5
B7
B9

MBP Kinase Activity, Negative:
B1
B3
B8
